Each substance was assayed against human CCR10 (human) (UniProt P46092) (assay: cell-based or functional assay).
human CCR10 (human), sequence (P46092 whole entry): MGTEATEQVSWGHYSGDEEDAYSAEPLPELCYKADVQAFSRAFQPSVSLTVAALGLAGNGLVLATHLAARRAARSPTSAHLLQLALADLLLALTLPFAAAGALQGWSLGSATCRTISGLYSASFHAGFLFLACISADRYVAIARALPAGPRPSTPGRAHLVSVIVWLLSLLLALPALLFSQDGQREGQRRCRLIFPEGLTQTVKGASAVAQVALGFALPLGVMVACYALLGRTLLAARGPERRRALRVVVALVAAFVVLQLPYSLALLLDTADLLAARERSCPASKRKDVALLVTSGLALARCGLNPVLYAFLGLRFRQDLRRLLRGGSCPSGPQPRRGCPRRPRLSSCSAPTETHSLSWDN

IC50 (nM) Calcium Flux Assay [nM] | IC50 (nM) Chemotaxis Assay [nM] | Substance
43.2 | 9.7 | cyclo(-2Nal-Cyp-Trp-Dab-^DPip-Pip-) (peptide)
9.2 | 2 | cyclo(-2Nal-Cyp-Trp-Gln-^DPro-Tic-) (peptide)
220 | 18.9 | cyclo(-Bbta-Cyp-Trp-Dab-^DPro-Oic-) (peptide)
8.1 | 1.8 | cyclo(-Bip-Cyp-Trp-Dab-^DPro-Oic-) (peptide)
243 | – | cyclo(-Cha-Cyp-Trp-Dab-^DPro-Oic-) (peptide)
– | 16.6 | cyclo(-Nle(6OBn)-Cyp-Trp-Dab-^DPro-Oic-) (peptide)
40.4 | 4.2 | cyclo(-OctG-Cyp-Trp-Dab-^DPro-Oic-) (peptide)
41.1 | 3.2 | cyclo(-Phe(3CF3)-Cyp-Trp-Dab-^DPro-Oic-) (peptide)
63.2 | 2.7 | cyclo(-Phe(4CF3)-Cyp-Trp-3Pal-^DPic-Oic-) (peptide)
14.8 | 22 | cyclo(-Phe(4CF3)-Cyp-Trp-Dab-^DPip-Pro((4R)Ph)-) (peptide)
22.6 | – | cyclo(-Phe(4CF3)-Cyp-Trp-Dab-^DPro-Hyp(4BrBn)-) (peptide)
58.1 | 13.4 | cyclo(-Phe(4CF3)-Cyp-Trp-Dab-^DPro-Oic-) (peptide)
1.9 | 13.5 | cyclo(-Phe(4CN)-Cyp-Phe(4F)-Ser-^DPro-Hyp(Bn)-) (peptide)
181 | 5.3 | cyclo(-Phe(4CN)-Cyp-Trp-Dab-^DPro-Hyp(Bn)-) (peptide)
280 | 48 | cyclo(-Phe(4CN)-Cyp-Trp-Dab-^DPro-Oic-) (peptide)
21.7 | – | cyclo(-Phe(4CN)-Cyp-Trp-Gln-^DPro-Hyp(Bn)-) (peptide)
0.5 | 1.8 | cyclo(-Phe(4CN)-Cyp-Trp-Ser-^DPip-Hyp(Bn)-) (peptide)
5.3 | 0.6 | cyclo(-Phe(4CN)-Cyp-Trp-Ser-^DPro-Hyp(4BrBn)-) (peptide)
80.3 | – | cyclo(-Phe(4CN)-Cyp-Trp-Ser-^DPro-Oic-) (peptide)
476 | 14.7 | cyclo(-Phe(4COOMe)-Cyp-Trp-Dab-^DPro-Oic-) (peptide)
548 | 11.6 | cyclo(-Trp(5OH)-Chx-Trp(5OH)-Arg-^DPro-Oic-) (peptide)
246 | – | cyclo(-Trp(5OH)-Cyp-Trp(5OH)-Dap-^DPro-Oic-) (peptide)
214 | 109 | cyclo(-Trp(5OH)-Cyp-Trp-Arg-^DPro-Thz(5,5Me2)-) (peptide)
52.5 | – | cyclo(-Trp(5OH)-Cyp-Trp-Arg-^DPro-Tic-) (peptide)
144 | 3.1 | cyclo(-Trp(5OH)-Cyp-Trp-Gln-^DPro-Thz-) (peptide)
8.5 | 8.6 | cyclo(-Trp(6Cl)-Cyp-Trp-Dab-^DPro-Hyp(Bn)-) (peptide)

IC50 (nM) Calcium Flux Assay [nM] | IC50 (nM) Chemotaxis Assay [nM] | Substance
6.3 | 5 | cyclo(-Trp(6Cl)-Cyp-Trp-Ser-^DPro-Oic-) (peptide)
823 | 21.9 | cyclo(-Trp-4,4-AC-ThioTHP-Trp-Dab-^DPro-Oic-) (peptide)
393 | 7.2 | cyclo(-Trp-Ac7c-Trp-Dab-^DPro-Oic-) (peptide)
706 | 257 | cyclo(-Trp-Ac8c-Trp-Dab-^DPro-Oic-) (peptide)
262 | 17.8 | cyclo(-Trp-Chx(4-oxo)-Trp-Dab-^DPro-Oic-) (peptide)
333 | 3.1 | cyclo(-Trp-Chx-Trp-Dab-^DPro-Oic-) (peptide)
70.5 | – | cyclo(-Trp-Cyp-2Nal-Dab-^DPip-Oic-) (peptide)
35.3 | – | cyclo(-Trp-Cyp-2Nal-Gln-^DPro-Oic-) (peptide)
132 | – | cyclo(-Trp-Cyp-Ala(2Furyl)-Dab-^DPro-Oic-) (peptide)
283 | 30.3 | cyclo(-Trp-Cyp-Ala(2Quin)-Dab-^DPro-Oic-) (peptide)
58.6 | 38.7 | cyclo(-Trp-Cyp-Phe(4CF3)-Dab-^DPro-Oic-) (peptide)
39.9 | – | cyclo(-Trp-Cyp-Phe(4Cl)-Dab-^DPro-Hyp(Bn)-) (peptide)
6.1 | 2.7 | cyclo(-Trp-Cyp-Phe(4Cl)-Ser-^DPro-Oic-) (peptide)
120 | – | cyclo(-Trp-Cyp-Phe(4F)-Dab-^DPro-Oic-) (peptide)
8.8 | 12 | cyclo(-Trp-Cyp-Phe(4F)-Ser-^DPro-Oic-) (peptide)
1060 | 16.4 | cyclo(-Trp-Cyp-Trp-Ala(Ppz)-^DPro-Oic-) (peptide)
70.4 | – | cyclo(-Trp-Cyp-Trp-Arg-^DAze-Tic-) (peptide)
70.6 | – | cyclo(-Trp-Cyp-Trp-Arg-^DPro-Thz-) (peptide)
78.5 | – | cyclo(-Trp-Cyp-Trp-Arg-^DPro-Tic(7OH)-) (peptide)
6.4 | – | cyclo(-Trp-Cyp-Trp-Dab(4Me2NPhSO2)-^DPro-Oic-) (peptide)
8.1 | 5.6 | cyclo(-Trp-Cyp-Trp-Dab((MeO(CH2)2)(Me)NCO)-^DPro-Oic-) (peptide)
30.3 | 4.8 | cyclo(-Trp-Cyp-Trp-Dab(Ac)-^DPro-Oic-) (peptide)
567 | 50.2 | cyclo(-Trp-Cyp-Trp-Dab(Dab)-^DPro-Oic-) (peptide)
62.8 | 11.5 | cyclo(-Trp-Cyp-Trp-Dab(MEMCO)-^DPro-Oic-) (peptide)
24.2 | 5.3 | cyclo(-Trp-Cyp-Trp-Dab(MeO(CH2)2NHCO)-^DPro-Oic-) (peptide)
53.9 | 5.3 | cyclo(-Trp-Cyp-Trp-Dab(MePpzCO)-^DPro-Oic-) (peptide)

IC50 (nM) Calcium Flux Assay [nM] | IC50 (nM) Chemotaxis Assay [nM] | Substance
0.2 | 3.4 | cyclo(-Trp-Cyp-Trp-Dab(MeSO2)-^DPro-Oic-) (peptide)
3 | 11.1 | cyclo(-Trp-Cyp-Trp-Dab(morphCO)-^DPro-Oic-) (peptide)
57 | – | cyclo(-Trp-Cyp-Trp-Dab-^DAze-Tic-) (peptide)
26 | 17 | cyclo(-Trp-Cyp-Trp-Dab-^DPip-Oic-) (peptide)
260 | 60.1 | cyclo(-Trp-Cyp-Trp-Dab-^DPro-(4S)-Hyp(Bn)-) (peptide)
127 | 50.7 | cyclo(-Trp-Cyp-Trp-Dab-^DPro-Hyp(3CNBn)-) (peptide)
11.6 | 2.5 | cyclo(-Trp-Cyp-Trp-Dab-^DPro-Hyp(4BrBn)-) (peptide)
48.9 | 143 | cyclo(-Trp-Cyp-Trp-Dab-^DPro-Hyp(4CNBn)-) (peptide)
65.8 | 14 | cyclo(-Trp-Cyp-Trp-Dab-^DPro-Hyp(Bn)-) (peptide)
150 | 184 | cyclo(-Trp-Cyp-Trp-Dab-^DPro-Hyp(CONHPh)-) (peptide)
42 | 37 | cyclo(-Trp-Cyp-Trp-Dab-^DPro-Hyp(Ph)-) (peptide)
190 | – | cyclo(-Trp-Cyp-Trp-Dab-^DPro-Hyp-) (peptide)
123 | 29 | cyclo(-Trp-Cyp-Trp-Dab-^DPro-Oic-) (peptide)
82.5 | 14.2 | cyclo(-Trp-Cyp-Trp-Dab-^DPro-Pro(5,5Me2)-) (peptide)
27.9 | 3.8 | cyclo(-Trp-Cyp-Trp-Dab-^DPro-Pro((4R)3CNBn)-) (peptide)
15.8 | 9 | cyclo(-Trp-Cyp-Trp-Dab-^DPro-Pro((4R)4BrBn)-) (peptide)
26.1 | 2.3 | cyclo(-Trp-Cyp-Trp-Dab-^DPro-Pro((4R)Bn)-) (peptide)
860 | 42 | cyclo(-Trp-Cyp-Trp-Dab-^DPro-Pro((4S)F)-) (peptide)
54.3 | 140 | cyclo(-Trp-Cyp-Trp-Dab-^DPro-Pro((4S)cHex)-) (peptide)
134 | 19.6 | cyclo(-Trp-Cyp-Trp-Dab-^DPro-Thz-) (peptide)
399 | 15.2 | cyclo(-Trp-Cyp-Trp-Dap((MeO(CH2)2)2)-^DPro-Oic-) (peptide)
20 | 4.7 | cyclo(-Trp-Cyp-Trp-Dap(CONH2)-^DPro-Oic-) (peptide)
56.8 | 6.9 | cyclo(-Trp-Cyp-Trp-Dap(MeO(CH2)2)-^DPro-Oic-) (peptide)
52.7 | – | cyclo(-Trp-Cyp-Trp-Dap-^DPro-Oic-) (peptide)
